Reference: patent US20200308241A1 (published 2020)

Key:
[1] = target: T1, Purified EGFR (R&D Systems, Minneapolis, Minn.) (Homo sapiens (Human), UniProt P00533 25-645); experiment: EGF-EGFR binding assay
T1 construct: Bought protein coated on an ELISA plate; also called immobilized EGFR; EGF receptors
Description: (§1) Purified EGFR (R&D Systems, Minneapolis, Minn.) was diluted in coating buffer (0.2 M sodium carbonate/bicarbonate pH 9.4, 0.5 1 g/mL) and immobilized on an ELISA plate by incubation at 4° C. overnight. […] The peroxidase reaction was stopped 30 min after the addition of 0.5 M H₂SO₄ ([…]/well), and the absorbance was measured at 450 nm with a multichannel microtiter plate reader.

[2] = target: T1, Purified EGFR (R&D Systems, …); experiment: ELISA, EGFR on the plate, his6-tagged ligand 0-50 nM, HRP anti-his6 detection
Description: as §1

B1: mGM-CSF-hEGF fusion protein of Example 1 (other)
chain: SPITVTRPWKHVEAIKEALNLLDDMPVTLNEEVEVVSNEFSFKKLTCVQTRLKIFEQGLRGNFTKLKGALNMTASYYQTYCPPTPETDCETQVTTYADFIDSLKTFLTDIPFECKKPGQKVPGVGVPGVGNSDSECPLSHDGYCLHDGVCMYIEALDKYACNCVVGYIGERCQYRDLKWWELRHHHHHH
notes: The assays call it his6-tagged; also called GM-CSF-EGF conjugate; GM-CSF-EGF fusion protein
- Kd [1]: ~10 nM
- Kd [2]: < 5 nM
